Data taken from the Immune Epitope Database (IEDB).
pIC50: −log10 of the molar value.

What follows are sequences tested against HLA-A*02:01 (assay: IEDB peptide-MHC binding, purified MHC/competitive/radioactivity; ≥ and ≤ were set here for values at or beyond the usual limits of such assays). Settings: source organism: Hepatitis B virus.

Sequence	pIC50
YQGMLPVCPL	6.27

Same assay, conditions: source organism: Vaccinia virus WR

Sequence	pIC50
KLYIALCKV	8.17

The sequences below were run against HLA-A*02:02 in the same assay as above. Settings: source organism: Hepatitis B virus.

Sequence	pIC50
FLAPLPIHTA	10.31
FLCKQYLNL	6.76
FLGPLLVLQA	5.43
FLLAQFTSAI	8.44
GLLGWSPQA	7.29
GLSRYVARV	7.96
ILCWGELMTL	8.17
ILSPFLPLL	10.12
KQYLNLYPV	6.65
LLVLLDYQGM	6.10
MMWYWGPSL	6.86
NLSWLSLDV	7.16
PLLPIFFCL	7.20
RVRGLYFPA	5.51
SLYSILSPFL	9.00
VLLDYQGML	7.28
WMMWYWGPSL	6.45
YLVSFGVWI	6.85
YQGMLPVCPL	7.46

Same assay, conditions: source organism: Vaccinia virus WR

Sequence	pIC50
KLYIALCKV	7.80

The sequences below were run against HLA-A*02:03 in the same assay as above. Settings: source organism: Hepatitis B virus.

Sequence	pIC50
FLAPLPIHTA	9.55
FLCKQYLNL	7.96
FLGPLLVLQA	6.80
FLLAQFTSAI	9.51
GLSRYVARV	8.82
ILCWGELMTL	8.28
ILSPFLPLL	9.08
KQYLNLYPV	8.35
LVPFVQWFV	7.15
MMWYWGPSL	7.27
NLSWLSLDV	7.30
PLLPIFFCL	6.20
RVRGLYFPA	5.40
SLYSILSPFL	7.89
WMMWYWGPSL	7.17
YLVSFGVWI	6.51
YMDDVVLGA	5.89
YQGMLPVCPL	7.70

Same assay, conditions: source organism: Vaccinia virus WR

Sequence	pIC50
KLYIALCKV	8.85

The sequences below were run against HLA-A*02:06 in the same assay as above. Settings: source organism: Hepatitis B virus.

Sequence	pIC50
FLAPLPIHTA	7.89
FLCKQYLNL	5.95
FLGPLLVLQA	5.86
FLLAQFTSA	8.06
FLLAQFTSAI	7.35
GLLGWSPQA	5.98
GLSRYVARV	5.93
HQLDPAFRA	6.93
ILCWGELMTL	8.15
ILSPFLPLL	9.03
KQYLNLYPV	7.96
KVGAGAFGL	5.94
LLVLLDYQGM	5.74
LVPFVQWFV	7.26
NLSWLSLDV	5.56
PLLPIFFCL	7.06
SLYSILSPFL	7.12
VLLDYQGML	6.17
WMMWYWGPSL	6.52
YLVSFGVWI	5.73
YMDDVVLGA	5.43
YQGMLPVCPL	6.78

Same assay, conditions: source organism: Vaccinia virus WR

Sequence	pIC50
KLYIALCKV	7.01

Each sequence was assayed against HLA-A*03:01 in the same assay as above. Settings: source organism: Hepatitis B virus.

Sequence	pIC50
FLAPLPIHTA	5.39
FLLSLGIHL	5.60

The sequences below were run against HLA-A*31:01 in the same assay as above. Settings: source organism: Hepatitis B virus.

Sequence	pIC50
ILCWGELMTL	5.73
KQYLNLYPV	6.72
LVPFVQWFV	5.74
MMWYWGPSL	6.88
RVRGLYFPA	7.62
WMMWYWGPSL	6.11

Same assay, conditions: source organism: Vaccinia virus WR

Sequence	pIC50
KLYIALCKV	6.13

These sequences were tested against HLA-A*68:02 in the same assay as above. Settings: source organism: Hepatitis B virus.

Sequence	pIC50
FLAPLPIHTA	6.01
FLPSDFFPSV	7.55
LVPFVQWFV	7.72
WMMWYWGPSL	5.45
